pKd: −log10 of the molar value.

These results are taken from paper PMC7457537.

Test [1] concerns the target HIV-1 integrase with methionine preceding the N-terminal phenylalanine (IN MF), full-length (HIV-1 (NL4-3)). The test can be described thus: AUC; sedimentation equilibrium, 4 °C, 20 mM HEPES-NaOH pH 7.5, 1 M NaCl, 7 mM CHAPS, 10 µM ZnOAc2, 10 µM β-mercaptoethanol; global fit at 16, 20, 24 krpm (SEDPHAT); dimer to monomers.
Test [2] shares this target. The test can be described thus: SEC-MALS; Superdex 200 10/300, 25 °C, 20 mM HEPES-NaOH pH 7.5, 500 mM-1 M NaCl, 7 mM CHAPS, 10 µM ZnOAc2, 10 µM β-mercaptoethanol; eluted concentrations ~8-10 µM (IN 1F, IN MF); self-association. (In general: Size exclusion chromatography separates by hydrodynamic size, large species first.)
Test [3] shares this target. Nature of the test: AUC; sedimentation velocity, 25 °C, 40,000 rpm, 20 mM HEPES-NaOH pH 7.5, 1 M NaCl, 7 mM CHAPS, 10 µM ZnOAc2, 10 µM β-mercaptoethanol; c(s) model in SEDFIT; self-association.
The target is the same in test [4]. Nature of the test: AUC; sedimentation equilibrium, 4 °C, same data and buffer as the monomer-dimer fit; attempted fit of a dimer-tetramer equilibrium: tetramer to dimers.

Take “HIV-1 integrase with methionine preceding the N-terminal phenylalanine (IN MF), full-length (enzyme)”: the pKd in test [1] is 3.90; in test [4], below 3.00. The stoichiometry N in test [2] and in test [3] was 2 throughout.

Broadly, the pKd is the Kd on a negative log10 scale, so that one unit is a factor of ten. A lower pKd goes with a large Kd. For orientation: stoichiometry N means the number of molecules, sites or subunits per partner or assembly.
